Legend:
HCT116 cells = experiment: Annexin V (and SytoxBlue) flow cytometry for apoptosis; format: cell-based, Homo sapiens; conditions: for Mean ± SEM (Prism T-tests, Annexin V for MPZ-GFP): N=3, values agree with avg Annexin V+; for avg Annexin V+ / avg Annexin V-: mean of 3 replicates; for AnnexinV+ (Statistic, single cells) / AnnexinV- (Statistic, single cells) / GFP+ (Statistic, single cells) / GFP- (Statistic, single cells) / Q1: APC-A- , DAPI-A+ (Statistic, single cells) / Q2: APC-A+ , DAPI-A+ (Statistic, single cells) / Q3: APC-A+ , DAPI-A- (Statistic, single cells) / Q4: APC-A- , DAPI-A- (Statistic, single cells) / SytoxBlue+ (Statistic, single cells) / SytoxBlue- (Statistic, single cells) / dead cells (Statistic) / FITC-A+ (Statistic, dead cells) / FITC-A- (Statistic, dead cells): 2018-01-17 MPZ; for AnnexinV+ (Statistic, single cells): gate all cells/Single Cells/AnnexinV+; for AnnexinV- (Statistic, single cells): gate all cells/Single Cells/AnnexinV-; for GFP+ (Statistic, single cells): gate all cells/Single Cells/GFP+; for GFP- (Statistic, single cells): gate all cells/Single Cells/GFP-; for Q1: APC-A- , DAPI-A+ (Statistic, single cells): gate all cells/Single Cells/Q1; for Q2: APC-A+ , DAPI-A+ (Statistic, single cells): gate all cells/Single Cells/Q2; for Q3: APC-A+ , DAPI-A- (Statistic, single cells): gate all cells/Single Cells/Q3; for Q4: APC-A- , DAPI-A- (Statistic, single cells): gate all cells/Single Cells/Q4; for SytoxBlue+ (Statistic, single cells): gate all cells/Single Cells/SytoxBlue+; for SytoxBlue- (Statistic, single cells): gate all cells/Single Cells/SytoxBlue-; for dead cells (Statistic): gate dead cells of all events; for FITC-A+ (Statistic, dead cells): gate dead cells/Single Cells/FITC-A+; for FITC-A- (Statistic, dead cells): gate dead cells/Single Cells/FITC-A-
Method: Cells seeded in a 6-well plate were transfected with the specified plasmid for 24 hr and harvested via trypsinization in complete media to allow a 30 min recovery at 37°C. The samples were then centrifuged at 500xg for 5 min and resuspended In 150 μl of a 1:20 dilution of Annexin V-AlexaFluor 647 conjugate (Thermo Scientific #A23204). Samples were transferred to a 96-well U-bottom plate and incubated in the dark for 15 min at RT. The distribution of apoptotic cells was determined by flow cytometry on a BD LSR II.

[1] = system: DR5 / ERGIC53 / giantin in HCT116 cells; experiment: Immunofluorescence co-localization (Pearson's correlation per cell); format: cell-based, Homo sapiens
Method: HCT116 were seeded at 25000 cells per well in an 8-well glass-bottom μSlide (Ibidi 80827) pre-coated with Collagen IV (Sigma-Aldrich C6745, 0.03 mg/ml in PBS incubated for 30 min at RT, and then rinsed off with PBS x 3) in growth media 18 hr prior to transfection (see above for protocol). 24 hr post-transfection, the cells were fixed using 4% paraformaldehyde (PFA, Electron Microscopy Sciences) or methanol, depending on the antibody combination used for immunostaining (see table below). Samples were protected from light after fixation to preserve GFP fluorescence.
For fixation with 4% PFA, 32% PFA was added directly to the well in growth media for a 1:8 dilution and incubated for 10–15 min at RT. Cells were then permeabilized with PHEM buffer (60 mM PIPES, 25 mM HEPES, 10 mM EGTA, 2 mM MgCl2-hexahydrate, pH 6.9) containing 0.1% Triton-X100 for 10 min at RT for three washes.
For fixation with methanol, media was removed and cells were washed with cold PBS. Then methanol (pre-cooled at −20°C) was added to the well and incubated at −20°C for 3–4 min. The methanol was promptly aspirated and replaced with PHEM buffer (without Triton X-100), followed by two more 10 min washes with PHEM at RT.
To block against non-specific antibody interactions, cells were rinsed in PHEM (without 0.1% Triton X-100) and then incubated with PHEM containing 2% normal goat serum (Jackson Immunoresearch Laboratories, 005-000-121) for 1 hr at RT. Primary antibodies were incubated in blocking solution overnight at 4°C at the dilution noted in the table above. […]
From the 405 nm channel, cell nuclei were identified as primary objects using maximum correlation thresholding (MCT) and shape to distinguish clumped objects. […] For overlap between DR5 and MPZ/RHO-GFP, Pearson’s correlation coefficients were calculated within the MPZ/RHO mask for each cell to filter out untransfected cells. For overlap between DR5/MPZ and organelle markers, Pearson’s correlation coefficients were calculated within tertiary objects for the organelle marker in GFP+ cells. […]

[2] = siRNA DR5 (siDR5), 2017-01-17 Replicate
[3] = siRNA DR5 (siDR5), 2018-06-21 Rep 1
[4] = siRNA DR5 (siDR5), 2018-06-21 Rep 2
[5] = siRNA scrambled, 2017-01-17 Replicate
[6] = siRNA scrambled, Tg sample with empty construct
[7] = siRNA scrambled, 2018-06-21 Rep 1
[8] = siRNA scrambled, 2018-06-21 Rep 2
[9] = MPZ-positive cells, N > 55, 24 hr, mean

B1: MPZ-GFP: myelin protein zero with a C-terminal monomeric EGFP, expressed from plasmid (protein)
chain: IVVYTDREVHGAVGSRVTLHCSFWSSEWVSDDISFTWRYQPEGGRDAISIFHYAKGQPYIDEVGTFKERIQWVGDPRWKDGSIVIHNLDYSDNGTFTCDVKNPPDIVGKTSQVTLYVFEKVPTRYGVVLGAVIGGVLGVVLLLLLLFYVVRYCWLRRQAALQRRLSAMEKGKLHKPGKDASKRGRQTPVLYAMLDHSRSTKAVSEKKAKGLGESRKDKK
modifications: left off: monomeric EGFP, C-terminal, kept
notes: myelin protein zero with a C-terminal monomeric EGFP, expressed from plasmid
Difference between means (HCT116 cells; MPZ-GFP siDR5 vs. MPZ-GFP): -18 ± 5.2
Mean ± SEM (Fig 1S2D) (HCT116 cells; MPZ-GFP, mean ± SEM, n=3): 37.91 ± 5.341, n=3
Mean ± SEM (Prism T-tests, Annexin V for MPZ-GFP) (HCT116 cells; no siDR5, mean ± SEM): 33 ± 4.7 N=3
Mean ± SEM (Prism T-tests, Annexin V for MPZ-GFP) (HCT116 cells; siDR5, mean ± SEM): 15 ± 2.3 N=3
Annexin V+ (HCT116 cells; [2]): 10.4
Annexin V- (HCT116 cells; [2]): 89.6
Annexin V+ (HCT116 cells; [3]): 17
Annexin V- (HCT116 cells; [3]): 83
Annexin V+ (HCT116 cells; [4]): 17.8
Annexin V- (HCT116 cells; [4]): 82.2
avg Annexin V+ (HCT116 cells; siRNA DR5 (siDR5)): 15.0667
avg Annexin V- (HCT116 cells; siRNA DR5 (siDR5)): 84.9333
AnnexinV+ (Statistic, single cells) (HCT116 cells; siRNA DR5): 10.4
AnnexinV- (Statistic, single cells) (HCT116 cells; siRNA DR5): 89.6
GFP+ (Statistic, single cells) (HCT116 cells; siRNA DR5): 40.8
GFP- (Statistic, single cells) (HCT116 cells; siRNA DR5): 59.2
Q1: APC-A- , DAPI-A+ (Statistic, single cells) (HCT116 cells; siRNA DR5): 1.26
Q2: APC-A+ , DAPI-A+ (Statistic, single cells) (HCT116 cells; siRNA DR5): 8.07
Q3: APC-A+ , DAPI-A- (Statistic, single cells) (HCT116 cells; siRNA DR5): 1.36
Q4: APC-A- , DAPI-A- (Statistic, single cells) (HCT116 cells; siRNA DR5): 89.3
SytoxBlue+ (Statistic, single cells) (HCT116 cells; siRNA DR5): 9.1
SytoxBlue- (Statistic, single cells) (HCT116 cells; siRNA DR5): 90.9
dead cells (Statistic) (HCT116 cells; siRNA DR5): 6.03
FITC-A+ (Statistic, dead cells) (HCT116 cells; siRNA DR5): 43.4
FITC-A- (Statistic, dead cells) (HCT116 cells; siRNA DR5): 56.6
AnnexinV+ (Statistic, single cells) (HCT116 cells; siRNA TRAIL): 20.8
AnnexinV- (Statistic, single cells) (HCT116 cells; siRNA TRAIL): 79.2
GFP+ (Statistic, single cells) (HCT116 cells; siRNA TRAIL): 47.9
GFP- (Statistic, single cells) (HCT116 cells; siRNA TRAIL): 52.1
Q1: APC-A- , DAPI-A+ (Statistic, single cells) (HCT116 cells; siRNA TRAIL): 2.56
Q2: APC-A+ , DAPI-A+ (Statistic, single cells) (HCT116 cells; siRNA TRAIL): 16.8
Q3: APC-A+ , DAPI-A- (Statistic, single cells) (HCT116 cells; siRNA TRAIL): 2.29
Q4: APC-A- , DAPI-A- (Statistic, single cells) (HCT116 cells; siRNA TRAIL): 78.3
SytoxBlue+ (Statistic, single cells) (HCT116 cells; siRNA TRAIL): 18.9
SytoxBlue- (Statistic, single cells) (HCT116 cells; siRNA TRAIL): 81.1
dead cells (Statistic) (HCT116 cells; siRNA TRAIL): 10.4
FITC-A+ (Statistic, dead cells) (HCT116 cells; siRNA TRAIL): 43.4
FITC-A- (Statistic, dead cells) (HCT116 cells; siRNA TRAIL): 56.6
Annexin V+ (HCT116 cells; [5]): 41.8
Annexin V- (HCT116 cells; [5]): 58.2
AnnexinV+ (Statistic, single cells) (HCT116 cells; [6]): 41.8
AnnexinV- (Statistic, single cells) (HCT116 cells; [6]): 58.2
GFP+ (Statistic, single cells) (HCT116 cells; [6]): 60.1
GFP- (Statistic, single cells) (HCT116 cells; [6]): 39.9
Q1: APC-A- , DAPI-A+ (Statistic, single cells) (HCT116 cells; [6]): 10.7
Q2: APC-A+ , DAPI-A+ (Statistic, single cells) (HCT116 cells; [6]): 31.7
Q3: APC-A+ , DAPI-A- (Statistic, single cells) (HCT116 cells; [6]): 8.04
Q4: APC-A- , DAPI-A- (Statistic, single cells) (HCT116 cells; [6]): 49.5
SytoxBlue+ (Statistic, single cells) (HCT116 cells; [6]): 40
SytoxBlue- (Statistic, single cells) (HCT116 cells; [6]): 60
dead cells (Statistic) (HCT116 cells; [6]): 22
FITC-A+ (Statistic, dead cells) (HCT116 cells; [6]): 37.6
FITC-A- (Statistic, dead cells) (HCT116 cells; [6]): 62.4
Annexin V+ (HCT116 cells; [7]): 25.8
Annexin V- (HCT116 cells; [7]): 74.2
Annexin V+ (HCT116 cells; [8]): 32
Annexin V- (HCT116 cells; [8]): 68
avg Annexin V+ (HCT116 cells; siRNA scrambled): 33.2
avg Annexin V- (HCT116 cells; siRNA scrambled): 66.8
Pearson's correlation per cell between DR5 and ERGIC53 [1, 9]: 0.61 ± 0.03
Pearson's correlation per cell between DR5 and giantin [1, 9]: 0.14 ± 0.02
overlap (mean Pearson's correlation) with DR5 signal ([1]; versus 90° rotated images, 24 hr): statistically significant overlap with DR5 signal

Reference: paper PMC7041945, “Misfolded proteins bind and activate death receptor 5 to trigger apoptosis during unresolved endoplasmic reticulum stress” (eLife, 2020)
